Data on eleven substances can be found in US11969464B2, “Amidated peptides and their deamidated counterparts displayed by HLA-A*02 for use in immunotherapy against different types of cancers” (Immatics Biotechnologies GmbH, priority 2020, dated 2024).

One test addresses HLA-A*02:01 (Homo sapiens, UniProt P04439, D140Y/D185E/D98H/E176V/E277Q/G131W/G231S/I119V/I121R/I166T/I218V/L300P/L318F/N151K/N90K/P208A/P217A/Q86G/Q94H/R138H/R169H/T345S). The test is described as follows: MHC binding assay (UV-ligand exchange, anti-β2m ELISA). The note with it: peptide exchange yield, binding to HLA-A*02:01. An excerpt:
Candidate peptides for T cell based therapies according to the present invention were further tested for their MHC binding capacity (affinity). The individual peptide-MHC complexes were produced by UV-ligand exchange, where a UV-sensitive peptide is cleaved upon UV-irradiation and exchanged with the peptide of interest as analyzed. Only peptide candidates that can effectively bind and stabilize the peptide-receptive MHC molecules prevent dissociation of the MHC complexes. To determine the yield of the exchange reaction, an ELISA was performed based on the detection of the light chain (β2m) of stabilized MHC complexes. The assay was performed as generally described in Rodenko et al. (Rodenko et al., 2006).
96 well MAXISorp plates (NUNC) were coated over night with 2 μg/ml streptavidin in PBS at room temperature, washed 4× and blocked for 1 h at 37° C. in 2% BSA containing blocking buffer. Refolded HLA-A*02:01/MLA-001 monomers served as standards, covering the range of 15-500 ng/ml. Peptide-MHC monomers of the UV-exchange reaction were diluted 100-fold in blocking buffer. Samples were incubated for 1 h at 37° C., washed four times, incubated with 2 μg/ml HRP conjugated anti-β2m for 1 h at 37° C., washed again and detected with TMB solution that is stopped with […]. Absorption was measured at 450 nm. Candidate peptides that show a high exchange yield (preferably higher than 50%, most preferred higher than 75%) are generally preferred for a generation and production of antibodies or fragments thereof, and/or T cell receptors or fragments thereof, as they show sufficient avidity to the MHC molecules and prevent dissociation of the MHC complexes.
On the technique in general: An ELISA detects its analyte on a solid surface through an enzyme-linked reagent.

In the next test the test system is CD8+ T cells. The test is described as follows: In vitro T cell priming assay with aAPCs loaded with peptide/MHC complexes and anti-CD28, pMHC multimer readout. It counts as cell-based, human. The following applies: percentage of positive wells and donors (among evaluable), healthy HLA-A*02+ donors. The source says:
In order to obtain information regarding the immunogenicity of the TUMAPs of the present invention, the inventors performed investigations using an in vitro T cell priming assay based on repeated stimulations of CD8+ T cells with artificial antigen presenting cells (aAPCs) loaded with peptide/MHC complexes and anti-CD28 antibody.
In order to perform in vitro stimulations by artificial antigen presenting cells loaded with peptide-MHC complex (pMHC) and anti-CD28 antibody, the inventors first isolated CD8+ T cells from fresh HLA-A*02 leukapheresis products via positive selection using CD8 microbeads (Miltenyi Biotec, Bergisch-Gladbach, Germany) of healthy donors obtained from the University clinics Mannheim, Germany, after informed consent.
PBMCs and isolated CD8+ lymphocytes were incubated in T cell medium (TCM) until use consisting of RPMI-Glutamax (Invitrogen, Karlsruhe, Germany) supplemented with 10% heat inactivated human AB serum (PAN-Biotech, Aidenbach, Germany), 100 U/ml Penicillin/100 μg/ml Streptomycin (Cambrex, Cologne, Germany), 1 mM sodium pyruvate (CC Pro, Oberdorla, Germany), 20 μg/ml Gentamycin (Cambrex). 2.5 ng/ml IL-7 (PromoCell, Heidelberg, Germany) and 10 U/ml IL-2 (Novartis Pharma, Nurnberg, Germany) were also added to the TCM at this step.
Generation of pMHC/anti-CD28 coated beads, T cell stimulations and readout was performed in a highly defined in vitro system using four different pMHC molecules per stimulation condition and 8 different pMHC molecules per readout condition.
The purified co-stimulatory mouse IgG2a anti human CD28 Ab 9.3 (Jung et al., 1987) was chemically biotinylated using Sulfo-N-hydroxysuccinimidobiotin as recommended by the manufacturer (Perbio, Bonn, Germany). Beads used were 5.6 μm diameter streptavidin coated polystyrene particles (Bangs Laboratories, Illinois, USA).
800.000 beads/200 μl were coated in 96-well plates in the presence of 4×12.5 ng different biotin-pMHC, washed and 600 ng biotin anti-CD28 were added subsequently in a volume of 200 μl. Stimulations were initiated in 96-well plates by co-incubating 1×10^6 CD8+ T cells with 2×10^5 washed coated beads in 200 μl TCM supplemented with 5 ng/ml IL-12 (PromoCell) for 3 days at 37° C. Half of the medium was then exchanged by fresh TCM supplemented with 80 U/ml IL-2 and incubating was continued for 4 days at 37° C. This stimulation cycle was performed for a total of three times. For the pMHC multimer readout using 8 different pMHC molecules per condition, a two-dimensional combinatorial coding approach was used as previously described (Andersen et al., 2012) with minor modifications encompassing coupling to 5 different fluorochromes. Finally, multimeric analyses were performed by staining the cells with Live/dead near IR dye (Invitrogen, Karlsruhe, Germany), CD8-FITC antibody clone SK1 (BD, Heidelberg, Germany) and fluorescent pMHC multimers. For analysis, a BD LSRII SORP cytometer equipped with appropriate lasers and filters was used. Peptide specific cells were calculated as percentage of total CD8+ cells. Evaluation of multimeric analysis was done using the FlowJo software (Tree Star, Oregon, USA). In vitro priming of specific multimer+CD8+ lymphocytes was detected by comparing to negative control stimulations.

Consider “8 (KLAPDLTEL; peptide displayed by HLA-A*02) [compound 8]”, for which the Peptide exchange result with HLA-A*02:01 was “+++ (≥50% = +++)”. In addition, the “Wells positive [%]” value in the test on CD8+ T cells is reported as “+ (<20% = +)”.

With “47 (VIDSTLVKV; peptide displayed by HLA-A*02) [compound 47]”, the Peptide exchange result with HLA-A*02:01 is “+++ (≥50% = +++)”. In addition, the “Wells positive [%]” value in the test with CD8+ T cells is on record as “++ (20%-49% = ++)”.

“96 (KLDASLPAL; peptide displayed by HLA-A*02) [compound 96]”: in the test with HLA-A*02:01, the Peptide exchange result was “++++ (≥75% = ++++)”. The “Wells positive [%]” value in the test with CD8+ T cells is “+ (<20% = +)”.

Take “98 (NLLADVSTV; peptide displayed by HLA-A*02) [compound 98]”: the Peptide exchange entry in the test with HLA-A*02:01 is “+++ (≥50% = +++)”. Besides, the “Wells positive [%]” value in the test with CD8+ T cells is reported as “+ (<20% = +)”.

On to “100 (SLLFQDITL; peptide displayed by HLA-A*02) [compound 100]”, for which the Peptide exchange entry in the test with HLA-A*02:01 is “++++ (≥75% = ++++)”. The “Wells positive [%]” value in the test on CD8+ T cells is reported as “+ (<20% = +)”.

For the substance “97 (KLLDGSQRV; peptide displayed by HLA-A*02) [compound 97]”, the Peptide exchange entry with HLA-A*02:01 is listed as “+++ (≥50% = +++)”. The “Wells positive [%]” value with CD8+ T cells is on record as “+ (<20% = +)”.

For “6 (NLYNDLTNV; peptide displayed by HLA-A*02) [compound 6]”, the Peptide exchange result with HLA-A*02:01 is given as “+++ (≥50% = +++)”. Moreover, the “Wells positive [%]” value in the test on CD8+ T cells is recorded as “+ (<20% = +)”.

Consider “101 (TLDATVVEL; peptide displayed by HLA-A*02) [compound 101]”, for which the Peptide exchange result in the test with HLA-A*02:01 was “++++ (≥75% = ++++)”. For the same substance, in the test on CD8+ T cells, the “Wells positive [%]” value was “++ (20%-49% = ++)”.

On to “7 (ALADLTGTV; peptide displayed by HLA-A*02) [compound 7]”, for which the Peptide exchange entry with HLA-A*02:01 is “++++ (≥75% = ++++)”. The “Wells positive [%]” value with CD8+ T cells is “+ (<20% = +)”.

As to “65 (ILLDKSTVL; peptide displayed by HLA-A*02) [compound 65]”, the Peptide exchange result with HLA-A*02:01 is “++++ (≥75% = ++++)”. The “Wells positive [%]” value with CD8+ T cells is reported as “+ (<20% = +)”.

With “76 (SLLRDFTLV; peptide displayed by HLA-A*02) [compound 76]”, the Peptide exchange entry with HLA-A*02:01 was “++++ (≥75% = ++++)”. In addition, the “Wells positive [%]” value in the test on CD8+ T cells is “+ (<20% = +)”.
